From article PMC4333373, “Specific and non-specific interactions of ParB with DNA: implications for chromosome segregation” (Nucleic Acids Research, 2015)

Target: the molecule itself
Test: SEC-MALS; ParB alone, no DNA; 9 or 80 uM ParB2; Superdex 200 in 50 mM Hepes-KOH, 150 mM KCl, 2.5 mM MgCl2, 2 mM beta-mercaptoethanol; monomer and dimer

B1: Bacillus subtilis ParB (natural protein, UniProt P26497 1-282, looked up)
chain: MAKGLGKGINALFNQVDLSEETVEEIKIADLRPNPYQPRKHFDDEALAELKESVLQHGILQPLIVRKSLKGYDIVAGERRFRAAKLAGLDTVPAIVRELSEALMREIALLENLQREDLSPLEEAQAYDSLLKHLDLTQEQLAKRLGKSRPHIANHLRLLTLPENIQQLIAEGTLSMGHGRTLLGLKNKNKLEPLVQKVIAEQLNVRQLEQLIQQLNQNVPRETKKKEPVKDAVLKERESYLQNYFGTTVNIKRQKKKGKIEIEFFSNEDLDRILELLSERES
notes: ParB (Spo0J) of Bacillus subtilis 168; the parB gene was amplified from genomic DNA and cloned into pET28a(+); native (untagged) protein; intact monomer has a theoretical weight of 32.2 kDa; Untagged; also called Spo0J; ParB2 (the dimer); source: E. coli BL21 (DE3), pET28a-ParB, purified (ammonium sulphate cuts, HiTrap Heparin, Mono S; some preparations also Superdex S75)
  stoichiometry N: 2
